{"source": "patent US20040137516A1", "about": "(PHAGETECH, published 2004)", "binders": {"B1": {"name": "Gal4 DNA binding domain-Lamin C control fusion (pGBKT7LaminC) (other)", "chain": "MKLLSSIEQACDICRLKKLKCSKEKPKCAKCLKNNWECRYSPKTKRSPLTRAHLTEVESRLERLEQLFLLIFPREDLDMILKMDSLQDIKALLTGLFVQDNVNKDAVTDRLASVETDMPLTLRQHRISATSSSEESSNKGQRQLTVSSEEVVSREVSGIKAAYEAELGDARKTLDSVAKERARLQLELSKVREEFKELKARNTKKEGDLIAAQARLKDLEALLNSKEAALSTALSEKRTLEGELHDLRGQVAKLEAALGEAKKQLQDEMLRRVDAENRLQTMKEELDFQKNIYSEELRETKRRHETRLVEID", "notes": "also called pGBKLaminC"}}, "key": {"[1]": {"molecular_target": "B1", "assay": "yeast two-hybrid, growth on THAL minus medium"}, "[2]": {"molecular_target": "T1, Gal4 activation domain-STAAU_R2 fusion (pGADSTAAU_R2) (yeast; Staphylococcus aureus, UniProt P0A022 1-377)", "T1 construct": "Expressed in yeast AH109 for two-hybrid analysis; not shown: limits and vector-encoded tags not st", "T1 sequence": "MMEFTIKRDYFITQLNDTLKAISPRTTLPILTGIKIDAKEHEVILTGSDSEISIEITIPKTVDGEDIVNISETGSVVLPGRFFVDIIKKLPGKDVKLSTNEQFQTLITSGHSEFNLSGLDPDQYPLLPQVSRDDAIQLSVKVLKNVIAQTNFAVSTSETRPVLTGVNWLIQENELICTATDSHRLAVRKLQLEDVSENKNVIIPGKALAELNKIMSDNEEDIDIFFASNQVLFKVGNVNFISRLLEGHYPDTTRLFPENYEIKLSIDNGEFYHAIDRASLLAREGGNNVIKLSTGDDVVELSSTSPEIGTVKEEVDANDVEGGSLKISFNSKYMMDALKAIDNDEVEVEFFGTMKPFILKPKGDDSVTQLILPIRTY", "assay": "yeast two-hybrid, growth on THAL minus medium"}, "[3]": {"molecular_target": "T2, S. aureus STAAU_R2 (DNA-directed DNA polymerase III beta subunit, DnaN), native protein in S. aureus extract (Staphylococcus aureus, UniProt P0A022 1-377)", "T2 construct": "also called PT48; PT 48", "T2 sequence": "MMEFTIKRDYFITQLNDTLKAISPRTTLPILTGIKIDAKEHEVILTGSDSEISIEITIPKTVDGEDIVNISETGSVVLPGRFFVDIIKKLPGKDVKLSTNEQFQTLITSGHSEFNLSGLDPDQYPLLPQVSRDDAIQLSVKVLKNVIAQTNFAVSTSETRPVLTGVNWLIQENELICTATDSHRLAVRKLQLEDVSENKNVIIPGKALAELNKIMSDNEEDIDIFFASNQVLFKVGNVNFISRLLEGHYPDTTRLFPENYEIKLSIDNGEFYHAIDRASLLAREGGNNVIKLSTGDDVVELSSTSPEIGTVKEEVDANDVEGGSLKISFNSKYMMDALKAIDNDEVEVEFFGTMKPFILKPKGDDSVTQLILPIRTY", "assay": "affinity chromatography of S. aureus extract on GST/ORF25-Affigel 10; 1% SDS eluate, SDS-PAGE silver stain, MALDI-ToF identification"}, "[4]": {"molecular_target": "T3, Glutathione-S-transferase (GST)-tagged STAAU_R2 (Staphylococcus aureus, UniProt P0A022 1-377)", "T3 construct": "Purified recombinant polypeptide captured by an anti-GST antibody on a CM5 chip; not shown: glutathione-S-transferase (GST) tag", "T3 sequence": "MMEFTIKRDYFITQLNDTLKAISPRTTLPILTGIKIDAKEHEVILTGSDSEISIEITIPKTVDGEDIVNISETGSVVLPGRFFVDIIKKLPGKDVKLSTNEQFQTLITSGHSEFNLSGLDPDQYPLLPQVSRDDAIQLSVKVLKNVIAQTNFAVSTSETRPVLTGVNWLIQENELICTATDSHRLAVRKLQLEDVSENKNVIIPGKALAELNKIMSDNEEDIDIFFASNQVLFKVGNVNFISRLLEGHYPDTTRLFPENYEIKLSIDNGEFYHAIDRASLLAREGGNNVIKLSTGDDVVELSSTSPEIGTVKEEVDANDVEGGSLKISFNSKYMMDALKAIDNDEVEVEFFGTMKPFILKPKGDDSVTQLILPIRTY", "assay": "SPR (Biacore 2000); GST-tagged STAAU_R2 captured by anti-GST antibody on CM5 chip, ORF 25 as analyte"}, "[5]": {"molecular_target": "T2, S. aureus STAAU_R2 (DNA-directed DNA …)", "assay": "affinity chromatography of S. aureus extract on GST ORF240-Affigel 10; SDS-PAGE silver stain"}}, "note": "Where no end group is shown, it is not given here.", "data": [{"binder": "Gal4 activation domain-Twort ORF 168 fusion (pGADT7 construct) (other, Second orientation of the two-hybrid test; also called Twort ORF 168 polypeptide; not shown: limits and vector-encoded tags not st) MLFFKEKFYNELSYYRGGHKDLESMFELALEYIEKLEEEDEQQVTDYENAMEEELRDAVDVIESQLEIIKDIVR", "values": [{"measurement": "binding result", "setting": "[1]", "result": "no binding"}]}, {"binder": "B1", "values": [{"measurement": "binding result", "setting": "[2]", "result": "no binding"}]}, {"binder": "GST/44AHJD ORF 25 fusion protein (other, also: fusion protein with GST moiety, not in chain, also called GST/ORF 25; GST/ORF25; not shown: glutathione-S-transferase (GST) moiety encoded by expression vector pGEX 4T-1 (Pharmacia)) MERKYKTVLLYCDEIKGHFPHQISMFEDLYDAKVVYSYYEYNLFTKKYAYIIEYIKEI", "values": [{"measurement": "binding result", "setting": "[3]", "result": "binds"}]}, {"binder": "purified bacteriophage 44AHJD ORF 25 protein (other, Purified recombinant polypeptide injected as analyte in SPR; also called 44ADJH ORF 25) MERKYKTVLLYCDEIKGHFPHQISMFEDLYDAKVVYSYYEYNLFTKKYAYIIEYIKEI", "values": [{"measurement": "binding result", "setting": "[4]", "result": "binds"}]}, {"binder": "GST/G1 ORF 240 fusion protein (other, also: fusion protein with GST moiety, not in chain, also called GST ORF240; not shown: glutathione-S-transferase (GST) moiety encoded by expression vector pGEX 4T-1) MVIPSIKAQNKFKNELEYYKQGHISESKMLELAFDYIQELEQNNEYVTNLLEEERYGE", "values": [{"measurement": "binding result", "setting": "[5]", "result": "binds"}]}]}
